Where no end group is shown, it is not given here.
Experiments:
[1] = biological target: T1, Anti-CD28 Fab (SEQ ID NOs: 696, 697); test: phage ELISA on captured anti-CD28 Fab; competitor CD28 antigen pre-incubated in the wells;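 further: clonal phage supernatants added to wells preloaded with CD28 antigen in blocking buffer, control wells buffer only, bound phage read via HRP-linked anti-M13 antibody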
T1 construct: Biotinylated Fab captured on neutravidin coated plates in the phage ELISA
T1 sequence (VH, as listed by the source, chain 1 of 2): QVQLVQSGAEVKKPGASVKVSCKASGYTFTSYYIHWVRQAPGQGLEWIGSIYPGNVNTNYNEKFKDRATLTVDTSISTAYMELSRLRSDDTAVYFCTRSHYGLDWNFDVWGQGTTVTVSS
T1 sequence (VL, as listed by the source, chain 2 of 2): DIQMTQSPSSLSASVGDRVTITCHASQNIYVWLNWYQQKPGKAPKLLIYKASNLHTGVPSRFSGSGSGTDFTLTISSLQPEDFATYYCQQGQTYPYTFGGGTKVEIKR
Experimental: (§1) After panning, phage infected bacteria were plated out and colonies picked into 96 well blocks. Clonal phage was then amplified and separated from bacterial cells via centrifugation.
(§2) Clonal phage were harvested as crude supematants and screened via standard ELISAs. […] Prior to the addition of clonal phage, wells were incubated with blocking buffer and CD28 antigen or blocking buffer alone. Without washing or aspirating, clonal phage supematants were then added to the wells and incubated for a short time. Wells were then washed followed by detection of bound phage using a horse radish conjugated anti-M13 antibody. Clonal phage of interest were then sent for sequence analysis.

[2] = biological target: T1, Anti-CD28 Fab (SEQ ID NOs: 696, 697); test: phage ELISA; biotinylated anti-CD28 Fab on neutravidin plate, bound phage detected with anti-M13 HRP antibody
Experimental: as §1, §2

[3] = biological target: T2, Anti-CD28 Fab (SEQ ID NOs: 696, 697); test: phage ELISA on anti-CD28 Fab pre-incubated with CD28 antigen as competitor, anti-M13 HRP detection
T2 construct: In the phage ELISA the Fab was biotinylated and captured on neutravidin coated plates
T2 sequence (VH, as listed by the source, chain 1 of 2): as the sequence (VH, as listed by the source, chain 1 of 2) above
T2 sequence (VL, as listed by the source, chain 2 of 2): as the sequence (VL, as listed by the source, chain 2 of 2) above

[4] = biological target: T2, Anti-CD28 Fab (SEQ ID NOs: 696, 697); test: phage ELISA; biotinylated anti-CD28 Fab on neutravidin plate, clonal phage supernatant, anti-M13 HRP detection;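 further: crude supernatants of single phage clones picked after panning were screened for binding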
Experimental: as §1, §2

[5] = biological target: T3, Anti-CD28 Fab (SEQ ID NOs: 696, 697); test: phage binding ELISA; Fab on plate pre-incubated with CD28 antigen as competitor, anti-M13 HRP detection;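 further: crude clonal phage supernatants screened by ELISA, with comparison wells pre-incubated in blocking buffer only, lacking CD28 antigen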
T3 construct: Biotinylated and captured on neutravidin coated plates in the phage ELISA
T3 sequence (VH, as listed by the source, chain 1 of 2): as the sequence (VH, as listed by the source, chain 1 of 2) above
T3 sequence (VL, as listed by the source, chain 2 of 2): as the sequence (VL, as listed by the source, chain 2 of 2) above
Experimental: as §1, §2

[6] = biological target: T3, Anti-CD28 Fab (SEQ ID NOs: 696, 697); test: phage binding ELISA; biotinylated Fab on neutravidin plate, clonal phage supernatant, anti-M13 HRP detection;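 further: phage from clones picked after panning, added to wells pre-incubated with blocking buffer with or without CD28 antigen, then briefly incubated and washed before detection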
Experimental: as §1, §2

[7] = biological target: Anti-CD28 Fab (SEQ ID NOs: 696, 697); test: phage binding ELISA; anti-CD28 Fab on plate pre-incubated with CD28 antigen as competitor, anti-M13 HRP detection
Target sequence in this assay (VH, as listed by the source, chain 1 of 2): as the sequence (VH, as listed by the source, chain 1 of 2) above
Target sequence in this assay (VL, as listed by the source, chain 2 of 2): as the sequence (VL, as listed by the source, chain 2 of 2) above
Experimental: as §1, §2

[8] = biological target: Anti-CD28 Fab (SEQ ID NOs: 696, 697); test: phage binding ELISA; biotinylated anti-CD28 Fab on neutravidin plate, clonal phage supernatant, anti-M13 HRP detection
Target sequence in this assay (VH, as listed by the source, chain 1 of 2): as the sequence (VH, as listed by the source, chain 1 of 2) above
Target sequence in this assay (VL, as listed by the source, chain 2 of 2): as the sequence (VL, as listed by the source, chain 2 of 2) above
Experimental: as §1, §2

Row | Binder | Anti-CD28 Fab signal in the presence of CD28 (phage binding ELISA) [1] | Anti-CD28 Fab signal (phage binding ELISA) [2] | Anti-CD28 Fab signal in the presence of CD28 (phage binding ELISA) [7] | Anti-CD28 Fab signal (phage binding ELISA) [8] | further results
1 | YCEGHSPLYMSKCL (not shown: fused to the pIII filament protein of the bacteriophage) [Phage-781] | 0.09 | 1.87 |  |  | 
2 | YCEGHVAEYMLKCL (Tested as clonal phage supernatant) [Phage-773] |  |  |  |  | Phage binding ELISA, Anti-CD28 Fab signal in the presence of CD28 [3]: 0.05; Phage binding ELISA, Anti-CD28 Fab signal [4]: 1.88
3 | YCDGHLPMYFAKCM (cysteine pairing not given here; also: displayed on phage by fusion to pIII, pIII and linker sequence not given here, Clonal phage of the Peptide-87 library; not shown: fused to the pIII filament protein of the bacteriophage) [Phage-801] |  |  |  |  | Anti-CD28 Fab signal in the presence of CD28 [5]: 0.06; Anti-CD28 Fab (SEQ ID NOs: 696, 697) signal [6]: 1.83
4 | YCEGHLPEYMRKCL [Phage-799] |  |  | 0.06 | 1.83 | 
5 | YCEGHLQEYMEKCL (Tested as clonal phage supernatant) [Phage-767] |  |  |  |  | Phage binding ELISA, Anti-CD28 Fab signal in the presence of CD28 [3]: 0.1; Phage binding ELISA, Anti-CD28 Fab signal [4]: 1.89
6 | YCEGHTSEYMNKCL (not shown: fused to the pIII filament protein of the bacteriophage) [Phage-785] | 0.06 | 1.87 |  |  | 
7 | YCDGHLAMYMDKCL (not shown: fused to the pIII filament protein of the bacteriophage) [Phage-787] | 0.08 | 1.86 |  |  | 
8 | YCEGHMSEYMAKCL (not shown: fused to the pIII filament protein of the bacteriophage) [Phage-775] | 0.11 | 1.88 |  |  | 
9 | YCEGHRSEYMAKCL (not shown: fused to the pIII filament protein of the bacteriophage) [Phage-786] | 0.06 | 1.86 |  |  | 
10 | YCAGHLPEYLSKCL [Phage-795] |  |  | 0.07 | 1.84 | 
11 | YCDGHSPEYMPKCL (Tested as clonal phage supernatant) [Phage-769] |  |  |  |  | Phage binding ELISA, Anti-CD28 Fab signal in the presence of CD28 [3]: 0.08; Phage binding ELISA, Anti-CD28 Fab signal [4]: 1.89
12 | YCDGHSAAYIMKCL [Phage-792] |  |  | 0.09 | 1.84 | 
13 | YCEGHSYEYMWKCL (not shown: fused to the pIII filament protein of the bacteriophage) [Phage-778] | 0.08 | 1.88 |  |  | 
14 | YCDGHTGVYFYKCL (not shown: fused to the pIII filament protein of the bacteriophage) [Phage-784] | 0.08 | 1.87 |  |  | 
15 | YCEGHSQEYMQKCL [Phage-794] |  |  | 0.05 | 1.84 | 
16 | YCEGHAAEYMWKCL (cysteine pairing not given here; also: displayed on phage by fusion to pIII, pIII and linker sequence not given here, Clonal phage of the Peptide-87 library; not shown: fused to the pIII filament protein of the bacteriophage) [Phage-803] |  |  |  |  | Anti-CD28 Fab signal in the presence of CD28 [5]: 0.07; Anti-CD28 Fab (SEQ ID NOs: 696, 697) signal [6]: 1.83
17 | YCEGHSPMYMQKCM (cysteine pairing not given here; also: displayed on phage by fusion to pIII, pIII and linker sequence not given here, Clonal phage of the Peptide-87 library; not shown: fused to the pIII filament protein of the bacteriophage) [Phage-805] |  |  |  |  | Anti-CD28 Fab signal in the presence of CD28 [5]: 0.06; Anti-CD28 Fab (SEQ ID NOs: 696, 697) signal [6]: 1.83
18 | YCDGHSWEYIQKCL (Position 10 is printed as '--' and was read as unchanged (I); not shown: fused to the pIII filament protein of the bacteriophage) [Phage-776] | 0.07 | 1.88 |  |  | 
19 | YCAGHAPEYMFKCM [Phage-797] |  |  | 0.06 | 1.83 | 
20 | YCEGHLQIYMSKCL [Phage-796] |  |  | 0.14 | 1.84 | 

Row | Binder | Anti-CD28 Fab signal in the presence of CD28 (phage binding ELISA) [1] | Anti-CD28 Fab signal (phage binding ELISA) [2] | Anti-CD28 Fab signal in the presence of CD28 (phage binding ELISA) [7] | Anti-CD28 Fab signal (phage binding ELISA) [8] | further results
21 | YCEGHAAEYMSKCL [Phage-789] |  |  | 0.07 | 1.86 | 
22 | YCDGHSLQYLGKCL [Phage-793] |  |  | 0.09 | 1.84 | 
23 | YCDGHLPEYMRKCL (not shown: fused to the pIII filament protein of the bacteriophage) [Phage-780] | 0.08 | 1.88 |  |  | 
24 | YCEGHSAEYIFKCL (cysteine pairing not given here; also: displayed on phage by fusion to pIII, pIII and linker sequence not given here, Clonal phage of the Peptide-87 library; not shown: fused to the pIII filament protein of the bacteriophage) [Phage-804] |  |  |  |  | Anti-CD28 Fab signal in the presence of CD28 [5]: 0.05; Anti-CD28 Fab (SEQ ID NOs: 696, 697) signal [6]: 1.83
25 | YCEGHSLEYMAKCL (not shown: fused to the pIII filament protein of the bacteriophage) [Phage-777] | 0.08 | 1.88 |  |  | 
26 | YCDGHMPEYLAKCL [Phage-788] |  |  | 0.07 | 1.86 | 
27 | YCDGHSALYMSKCL (not shown: fused to the pIII filament protein of the bacteriophage) [Phage-783] | 0.08 | 1.87 |  |  | 
28 | YCDGHIDEYLQKCL (Tested as clonal phage supernatant) [Phage-772] |  |  |  |  | Phage binding ELISA, Anti-CD28 Fab signal in the presence of CD28 [3]: 0.06; Phage binding ELISA, Anti-CD28 Fab signal [4]: 1.88
29 | YCDGHSPAYMAKCL [Phage-800] |  |  | 0.1 | 1.83 | 
30 | YCEGHRPEYMAKCL [Phage-798] |  |  | 0.07 | 1.83 | 
31 | YCEGHSWEYIGKCL (not shown: fused to the pIII filament protein of the bacteriophage) [Phage-782] | 0.07 | 1.87 |  |  | 
32 | YCEGHLPEYMMKCL (not shown: fused to the pIII filament protein of the bacteriophage) [Phage-779] | 0.27 | 1.88 |  |  | 
33 | YCEGHIPEYMAKCL (Tested as clonal phage supernatant) [Phage-768] |  |  |  |  | Phage binding ELISA, Anti-CD28 Fab signal in the presence of CD28 [3]: 0.06; Phage binding ELISA, Anti-CD28 Fab signal [4]: 1.89
34 | YCDGHLAEYMPKCL (Tested as clonal phage supernatant) [Phage-770] |  |  |  |  | Phage binding ELISA, Anti-CD28 Fab signal in the presence of CD28 [3]: 0.07; Phage binding ELISA, Anti-CD28 Fab signal [4]: 1.89
35 | YCAGHSSEYMWKCL [Phage-790] |  |  | 0.07 | 1.85 | 
36 | YCEGHSPEYMWKCL (Tested as clonal phage supernatant) [Phage-771] |  |  |  |  | Phage binding ELISA, Anti-CD28 Fab signal in the presence of CD28 [3]: 0.09; Phage binding ELISA, Anti-CD28 Fab signal [4]: 1.89
37 | YCEGHLSEYMSKCL (Tested as clonal phage supernatant) [Phage-774] |  |  |  |  | Phage binding ELISA, Anti-CD28 Fab signal in the presence of CD28 [3]: 0.09; Phage binding ELISA, Anti-CD28 Fab signal [4]: 1.88
38 | YCDGHSWAYMWKCL [Phage-791] |  |  | 0.13 | 1.85 | 
39 | YCDGHSSEYIVKCL (cysteine pairing not given here; also: displayed on phage by fusion to pIII, pIII and linker sequence not given here, Clonal phage of the Peptide-87 library; not shown: fused to the pIII filament protein of the bacteriophage) [Phage-802] |  |  |  |  | Anti-CD28 Fab signal in the presence of CD28 [5]: 0.06; Anti-CD28 Fab (SEQ ID NOs: 696, 697) signal [6]: 1.83
